Measured values reported in PMC5692591.

Tests used:
[1] = target: FpvAI (ferripyoverdine transporter of P. aeruginosa PAO1), recombinant (P. aeruginosa PAO1)
[2] = target: FpvAI (ferripyoverdine transporter of P. aeruginosa PAO1), recombinant (P. aeruginosa PAO1); experiment: ITC
[3] = target: TonB1 periplasmic domain (residues 109–342) (P. aeruginosa); experiment: ITC

Substance | fold decrease of binding against pyoS2^NTD [1] [fold] | Kd [2] [nM] | dH [2] [kcal/mol] | stoichiometry N [2] [sites] | Kd [3] [nM]
Δ1–45 pyoS2^NTD (from UniProt Q06584 46-209) (domain or fragment) | 1000 | – | – | – | –
N-terminal domain of pyocin S2 (pyoS2^NTD), residues 1–209 (from UniProt Q06584 1-209) (domain or fragment) | – | 0.24 | -15.8 | 0.78 | 1000
